Consider 3 molecules from patent publication US20120270784A1 (THERATECHNOLOGIES, published 2012).

The target in this assay is T1, human GRF receptor (human, UniProt Q02643 23-423).
T1 sequence (looked up): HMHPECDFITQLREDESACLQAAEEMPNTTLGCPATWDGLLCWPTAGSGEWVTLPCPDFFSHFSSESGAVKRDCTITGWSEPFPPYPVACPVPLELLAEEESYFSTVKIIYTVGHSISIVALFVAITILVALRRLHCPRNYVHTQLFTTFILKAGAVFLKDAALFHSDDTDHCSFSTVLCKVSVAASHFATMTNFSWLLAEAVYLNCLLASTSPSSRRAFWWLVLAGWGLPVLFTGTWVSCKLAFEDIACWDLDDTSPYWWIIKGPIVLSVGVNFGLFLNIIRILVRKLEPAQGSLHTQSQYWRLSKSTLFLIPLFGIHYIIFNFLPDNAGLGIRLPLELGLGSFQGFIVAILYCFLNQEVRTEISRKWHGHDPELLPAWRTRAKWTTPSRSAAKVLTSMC
Nature of the assay: cell-based or functional assay.

B1: Y-a-DAIFTDSYRKVLAQLKARQDIL-aib-R-NH2 (SEQ ID NO: 22) (peptide)
peptide: YXDAIFTDSYRKVLAQLKARQDILXR
HELM: PEPTIDE1{Y.[dA].D.A.I.F.T.D.S.Y.R.K.V.L.A.Q.L.K.A.R.Q.D.I.L.[Aib].R.[am]}$$$$V2.0; N-terminus assumed
SMILES: CC[C@H](C)[C@H](NC(=O)[C@H](C)NC(=O)[C@H](CC(=O)O)NC(=O)[C@@H](C)NC(=O)[C@@H](N)Cc1ccc(O)cc1)C(=O)N[C@@H](Cc1ccccc1)C(=O)N[C@H](C(=O)N[C@@H](CC(=O)O)C(=O)N[C@@H](CO)C(=O)N[C@@H](Cc1ccc(O)cc1)C(=O)N[C@@H](CCCNC(=N)N)C(=O)N[C@@H](CCCCN)C(=O)N[C@H](C(=O)N[C@@H](CC(C)C)C(=O)N[C@@H](C)C(=O)N[C@@H](CCC(N)=O)C(=O)N[C@@H](CC(C)C)C(=O)N[C@@H](CCCCN)C(=O)N[C@@H](C)C(=O)N[C@@H](CCCNC(=N)N)C(=O)N[C@@H](CCC(N)=O)C(=O)N[C@@H](CC(=O)O)C(=O)N[C@H](C(=O)N[C@@H](CC(C)C)C(=O)NC(C)(C)C(=O)N[C@@H](CCCNC(=N)N)C(N)=O)[C@@H](C)CC)C(C)C)[C@@H](C)O
On to B1, for which the “EC50 as assessed by alkaline phosphatase (AP) induction” value (“EC50 as assessed” below) amounted to 0.72 nM.

B2: Trans-3-hexenoyl-Y-A-D-A-I-F-T-D-S-Y-R-K-V-L-A-Q-L-O-A-R-Q-D-I-L-S-r-NH2 (SEQ ID NO: 24) (peptide)
peptide: YADAIFTDSYRKVLAQLXARQDILSX
HELM: PEPTIDE1{[CC/C=C/CC(=O)[*:2]].Y.A.D.A.I.F.T.D.S.Y.R.K.V.L.A.Q.L.[Orn].A.R.Q.D.I.L.S.[dR].[am]}$$$$V2.0
SMILES: CC/C=C/CC(=O)N[C@@H](Cc1ccc(O)cc1)C(=O)N[C@@H](C)C(=O)N[C@@H](CC(=O)O)C(=O)N[C@@H](C)C(=O)N[C@H](C(=O)N[C@@H](Cc1ccccc1)C(=O)N[C@H](C(=O)N[C@@H](CC(=O)O)C(=O)N[C@@H](CO)C(=O)N[C@@H](Cc1ccc(O)cc1)C(=O)N[C@@H](CCCNC(=N)N)C(=O)N[C@@H](CCCCN)C(=O)N[C@H](C(=O)N[C@@H](CC(C)C)C(=O)N[C@@H](C)C(=O)N[C@@H](CCC(N)=O)C(=O)N[C@@H](CC(C)C)C(=O)N[C@@H](CCCN)C(=O)N[C@@H](C)C(=O)N[C@@H](CCCNC(=N)N)C(=O)N[C@@H](CCC(N)=O)C(=O)N[C@@H](CC(=O)O)C(=O)N[C@H](C(=O)N[C@@H](CC(C)C)C(=O)N[C@@H](CO)C(=O)N[C@H](CCCNC(=N)N)C(N)=O)[C@@H](C)CC)C(C)C)[C@@H](C)O)[C@@H](C)CC
In the case of B2, the “EC50 as assessed” value stood at 1.18 nM.

B3: Y-a-D-A-I-F-T-D-S-Y-R-K-V-L-A-Q-L-O-A-R-Q-D-I-L-S-r-NH2 (SEQ ID NO: 23) (peptide)
peptide: YXDAIFTDSYRKVLAQLXARQDILSX
HELM: PEPTIDE1{Y.[dA].D.A.I.F.T.D.S.Y.R.K.V.L.A.Q.L.[Orn].A.R.Q.D.I.L.S.[dR].[am]}$$$$V2.0; N-terminus assumed
SMILES: CC[C@H](C)[C@H](NC(=O)[C@H](C)NC(=O)[C@H](CC(=O)O)NC(=O)[C@@H](C)NC(=O)[C@@H](N)Cc1ccc(O)cc1)C(=O)N[C@@H](Cc1ccccc1)C(=O)N[C@H](C(=O)N[C@@H](CC(=O)O)C(=O)N[C@@H](CO)C(=O)N[C@@H](Cc1ccc(O)cc1)C(=O)N[C@@H](CCCNC(=N)N)C(=O)N[C@@H](CCCCN)C(=O)N[C@H](C(=O)N[C@@H](CC(C)C)C(=O)N[C@@H](C)C(=O)N[C@@H](CCC(N)=O)C(=O)N[C@@H](CC(C)C)C(=O)N[C@@H](CCCN)C(=O)N[C@@H](C)C(=O)N[C@@H](CCCNC(=N)N)C(=O)N[C@@H](CCC(N)=O)C(=O)N[C@@H](CC(=O)O)C(=O)N[C@H](C(=O)N[C@@H](CC(C)C)C(=O)N[C@@H](CO)C(=O)N[C@H](CCCNC(=N)N)C(N)=O)[C@@H](C)CC)C(C)C)[C@@H](C)O
Turning to B3, the “EC50 as assessed” value was 1.14 nM.
